Source: publication PMC10213050 (Nature Communications, 2023)

Legend:
Bre1 = molecular target: T1, Bre1 (Saccharomyces cerevisiae (yeast), UniProt Q07457 1-700); assay: pull-down; Bre1 alone; Pull-down: 42 mM Tris-HCl pH 7.5, 15 mM KCl, 90 mM NaCl, 2 mM ATP, 1 mM EDTA, 0.5% NP-40, 1 mM DTT, 20 ug/mL BSA, 5% glycerol, 37 C; EMSA: 42 mM MOPS pH 7.2, 3; conditions: protein: recombinant; tags: 6xHis; label: 5'-biotin
T1 sequence: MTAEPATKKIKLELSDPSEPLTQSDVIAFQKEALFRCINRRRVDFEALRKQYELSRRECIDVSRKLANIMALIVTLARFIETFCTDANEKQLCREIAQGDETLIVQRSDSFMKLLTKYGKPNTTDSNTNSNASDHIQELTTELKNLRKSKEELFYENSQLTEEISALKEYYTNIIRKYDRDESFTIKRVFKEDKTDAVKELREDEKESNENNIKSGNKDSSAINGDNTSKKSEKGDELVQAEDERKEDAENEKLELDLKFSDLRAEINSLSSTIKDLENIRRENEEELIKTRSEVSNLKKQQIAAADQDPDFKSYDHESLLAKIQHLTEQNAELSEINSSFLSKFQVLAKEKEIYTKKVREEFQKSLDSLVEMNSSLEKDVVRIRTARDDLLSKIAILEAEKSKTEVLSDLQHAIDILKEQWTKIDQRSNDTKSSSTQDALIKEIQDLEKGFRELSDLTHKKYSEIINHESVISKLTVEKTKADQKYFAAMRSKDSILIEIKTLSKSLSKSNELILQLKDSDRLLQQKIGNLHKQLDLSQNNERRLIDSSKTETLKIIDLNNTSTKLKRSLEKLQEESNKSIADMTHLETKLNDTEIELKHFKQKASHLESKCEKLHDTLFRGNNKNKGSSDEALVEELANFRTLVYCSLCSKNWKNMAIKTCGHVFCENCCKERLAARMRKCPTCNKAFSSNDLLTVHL

Rad51;Bre1 = Rad51;Bre1 (Saccharomyces cerevisiae …, UniProt P25454;Q07457 1-400;1-700, |); assay: pull-down; ATP; Bre1 stimulates Rad51 binding and is co-captured; Pull-down: 42 mM Tris-HCl pH 7.5, 15 mM KCl, 90 mM NaCl, 2 mM ATP, 1 mM EDTA, 0.5% NP-40, 1 mM DTT, 20 ug/mL BSA, 5% glycerol, 37 C; EMSA: 42 mM MOPS pH 7.2, 3; conditions: protein: recombinant;recombinant; tags: 6xHis (pET30a) or GST-cleaved;6xHis; label: 5'-biotin
hRad51 = hRad51 (Homo sapiens, UniProt Q06609 1-339); assay: pull-down; ATP; Pull-down: 42 mM Tris-HCl pH 7.5, 15 mM KCl, 90 mM NaCl, 2 mM ATP, 1 mM EDTA, 0.5% NP-40, 1 mM DTT, 20 ug/mL BSA, 5% glycerol, 37 C; EMSA: 42 mM MOPS pH 7.2, 3; conditions: protein: recombinant; tags: 6xHis or GST-cleaved; chain copies: 10; label: 5'-biotin
Rad51 = Rad51 (Saccharomyces cerevisiae (yeast), UniProt P25454 1-400); assay: as above; conditions: protein: recombinant; tags: 6xHis (pET30a) or GST-cleaved; label: 5'-biotin
Srs2 = Srs2 (Saccharomyces cerevisiae (yeast), UniProt P12954 1-1174); assay: pull-down; 200 nM ssDNA; Pull-down: 42 mM Tris-HCl pH 7.5, 15 mM KCl, 90 mM NaCl, 2 mM ATP, 1 mM EDTA, 0.5% NP-40, 1 mM DTT, 20 ug/mL BSA, 5% glycerol, 37 C; EMSA: 42 mM MOPS pH 7.2, 3; conditions: protein: recombinant; tags: GST (pGEX-6p-1); label: 5'-biotin
RNF20N = RNF20N (Homo sapiens, UniProt Q5VTR2 1-300); assay: pull-down; RNF20N alone; Pull-down: 42 mM Tris-HCl pH 7.5, 15 mM KCl, 90 mM NaCl, 2 mM ATP, 1 mM EDTA, 0.5% NP-40, 1 mM DTT, 20 ug/mL BSA, 5% glycerol, 37 C; EMSA: 42 mM MOPS pH 7.2, 3; conditions: protein: recombinant; tags: GST (pGEX-6p-1); label: 5'-biotin
hRad51;RNF20N = hRad51;RNF20N (Homo sapiens;Homo sapiens, UniProt Q06609;Q5VTR2 1-339;1-300, |); assay: pull-down; ATP; RNF20N stimulates hRad51 binding and is co-captured; Pull-down: 42 mM Tris-HCl pH 7.5, 15 mM KCl, 90 mM NaCl, 2 mM ATP, 1 mM EDTA, 0.5% NP-40, 1 mM DTT, 20 ug/mL BSA, 5% glycerol, 37 C; EMSA: 42 mM MOPS pH 7.2, 3; conditions: protein: recombinant;recombinant; tags: 6xHis or GST-cleaved;GST (pGEX-6p-1); label: 5'-biotin
Chain of hRad51;RNF20N (Q06609 whole entry, chain 1 of 2): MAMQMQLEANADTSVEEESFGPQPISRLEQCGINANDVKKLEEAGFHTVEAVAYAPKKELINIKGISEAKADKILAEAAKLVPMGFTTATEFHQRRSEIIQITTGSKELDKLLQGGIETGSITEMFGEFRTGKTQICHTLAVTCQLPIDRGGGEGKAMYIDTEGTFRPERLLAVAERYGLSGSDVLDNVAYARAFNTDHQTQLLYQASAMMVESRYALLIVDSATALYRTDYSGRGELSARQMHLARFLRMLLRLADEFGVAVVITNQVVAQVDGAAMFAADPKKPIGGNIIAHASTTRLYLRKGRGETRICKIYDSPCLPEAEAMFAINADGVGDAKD
Chain of hRad51;RNF20N (Q5VTR2 1-300, chain 2 of 2): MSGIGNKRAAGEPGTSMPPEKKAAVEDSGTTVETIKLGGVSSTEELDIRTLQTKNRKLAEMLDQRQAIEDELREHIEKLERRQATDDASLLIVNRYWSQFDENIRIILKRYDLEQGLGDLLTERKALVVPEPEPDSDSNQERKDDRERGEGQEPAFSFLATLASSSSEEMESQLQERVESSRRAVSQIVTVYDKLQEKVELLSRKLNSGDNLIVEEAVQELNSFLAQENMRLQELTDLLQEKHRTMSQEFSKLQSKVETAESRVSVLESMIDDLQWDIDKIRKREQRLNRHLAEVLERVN

Chain of hRad51 (Q06609 whole entry): as the sequence (Q06609 whole entry, chain 1 of 2) above
Chain of Rad51 (P25454 whole entry): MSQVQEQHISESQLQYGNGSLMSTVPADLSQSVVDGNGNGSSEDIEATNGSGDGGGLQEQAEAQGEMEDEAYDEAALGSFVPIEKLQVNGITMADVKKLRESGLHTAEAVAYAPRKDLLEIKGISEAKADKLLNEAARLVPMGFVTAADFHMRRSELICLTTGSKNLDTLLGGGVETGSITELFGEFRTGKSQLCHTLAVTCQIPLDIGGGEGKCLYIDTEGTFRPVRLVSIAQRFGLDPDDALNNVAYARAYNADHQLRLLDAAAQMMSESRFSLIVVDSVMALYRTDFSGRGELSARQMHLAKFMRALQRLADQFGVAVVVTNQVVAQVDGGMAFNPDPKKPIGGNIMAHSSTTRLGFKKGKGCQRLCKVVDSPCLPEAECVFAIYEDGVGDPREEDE
Chain of Rad51;Bre1 (P25454 whole entry, one chain of several): as the sequence (P25454 whole entry) above
Chain of Srs2 (P12954 whole entry): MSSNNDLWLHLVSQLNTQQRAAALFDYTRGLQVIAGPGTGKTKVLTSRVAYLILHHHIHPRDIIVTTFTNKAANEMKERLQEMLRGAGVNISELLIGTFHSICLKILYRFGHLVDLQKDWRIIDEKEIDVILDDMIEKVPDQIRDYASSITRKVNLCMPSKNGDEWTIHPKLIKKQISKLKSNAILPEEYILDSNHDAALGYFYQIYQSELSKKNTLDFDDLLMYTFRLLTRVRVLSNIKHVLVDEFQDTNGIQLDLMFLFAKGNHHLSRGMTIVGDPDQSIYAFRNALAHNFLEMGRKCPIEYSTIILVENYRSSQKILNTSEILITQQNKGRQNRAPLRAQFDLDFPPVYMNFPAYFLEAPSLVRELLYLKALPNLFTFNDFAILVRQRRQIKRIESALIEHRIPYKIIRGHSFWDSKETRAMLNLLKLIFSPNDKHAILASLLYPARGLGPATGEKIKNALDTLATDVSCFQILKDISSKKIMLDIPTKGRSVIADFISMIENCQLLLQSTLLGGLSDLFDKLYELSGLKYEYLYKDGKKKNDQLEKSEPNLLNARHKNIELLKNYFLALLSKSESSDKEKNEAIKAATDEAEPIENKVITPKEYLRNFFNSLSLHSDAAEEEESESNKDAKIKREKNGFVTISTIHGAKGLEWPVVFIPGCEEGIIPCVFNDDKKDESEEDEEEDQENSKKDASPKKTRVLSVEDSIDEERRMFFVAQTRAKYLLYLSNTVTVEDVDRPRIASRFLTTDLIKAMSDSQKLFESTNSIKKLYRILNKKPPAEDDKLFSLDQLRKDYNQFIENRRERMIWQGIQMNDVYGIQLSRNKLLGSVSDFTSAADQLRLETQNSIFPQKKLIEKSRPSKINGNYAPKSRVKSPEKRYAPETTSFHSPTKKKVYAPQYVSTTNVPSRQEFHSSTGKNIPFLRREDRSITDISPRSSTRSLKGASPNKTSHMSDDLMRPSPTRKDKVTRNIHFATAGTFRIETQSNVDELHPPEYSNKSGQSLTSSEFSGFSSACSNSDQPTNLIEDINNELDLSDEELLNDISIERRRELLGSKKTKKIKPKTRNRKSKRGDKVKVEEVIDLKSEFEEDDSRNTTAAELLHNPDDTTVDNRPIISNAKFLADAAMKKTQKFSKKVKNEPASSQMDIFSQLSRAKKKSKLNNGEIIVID
Chain of RNF20N (Q5VTR2 1-300): as the sequence (Q5VTR2 1-300, chain 2 of 2) above

B1: 90-nt ssDNA (ssDNA)
DNA: CGACAGGTCATGGCCGTACATGATATCCTCGAGCGTCCTGTTGCAACTTACACTCTGAATAGCCGAATTCTTAGGGTTAGGGTTAACA
binding result (Bre1): no binding | binding result (Rad51;Bre1): binds | binding result (hRad51): binds | binding result (Rad51): binds | binding result (Srs2): binds | binding result (RNF20N): no binding | binding result (hRad51;RNF20N): binds
